Among the data in patent publication US20020137113A1 (Genentech, published 2002) are IC50 values, retold here.

The target of this test is trkB.IgG (untagged trk.IgG fusion of the trkB extracellular domain and IgG-1 Fc) (human, UniProt Q16620 32-430). The test can be described thus: competitive displacement of iodinated NT5 from trkB.IgG in 293 cell supernatant.
Sequence of trkB.IgG (untagged trk.IgG fusion of the trkB extracellular domain and IgG-1 Fc) (Q16620 32-822): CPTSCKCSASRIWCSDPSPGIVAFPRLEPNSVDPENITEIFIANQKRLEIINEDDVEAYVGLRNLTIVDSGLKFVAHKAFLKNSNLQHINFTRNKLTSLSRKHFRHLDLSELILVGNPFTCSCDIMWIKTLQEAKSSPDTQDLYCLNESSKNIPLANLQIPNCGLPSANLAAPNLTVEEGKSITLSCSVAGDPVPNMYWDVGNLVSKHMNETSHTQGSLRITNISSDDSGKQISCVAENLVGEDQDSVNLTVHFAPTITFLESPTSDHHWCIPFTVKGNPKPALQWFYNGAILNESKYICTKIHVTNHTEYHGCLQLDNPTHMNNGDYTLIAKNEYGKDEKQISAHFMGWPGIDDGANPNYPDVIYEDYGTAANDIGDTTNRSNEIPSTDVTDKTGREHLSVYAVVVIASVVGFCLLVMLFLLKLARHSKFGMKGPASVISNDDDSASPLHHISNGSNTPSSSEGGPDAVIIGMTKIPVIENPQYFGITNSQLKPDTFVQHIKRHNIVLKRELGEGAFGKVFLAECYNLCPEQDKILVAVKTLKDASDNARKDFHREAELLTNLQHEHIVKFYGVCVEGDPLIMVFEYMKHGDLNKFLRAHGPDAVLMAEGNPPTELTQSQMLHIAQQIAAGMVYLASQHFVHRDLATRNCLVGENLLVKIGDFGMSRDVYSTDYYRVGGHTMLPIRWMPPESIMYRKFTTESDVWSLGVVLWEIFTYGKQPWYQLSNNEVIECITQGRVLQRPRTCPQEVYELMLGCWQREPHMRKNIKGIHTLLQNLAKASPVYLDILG

B1: neurotrophin 5 (NT5) (ligand, UniProt P34130 81-210, looked up)
chain: GVSETAPASRRGELAVCDAVSGWVTDRRTAVDLRGREVEVLGEVPAAGGSPLRQYFFETRCKADNAEEGGPGAGGGGCRGVDRRHWVSECKAKQSYVRALTADAQGRVGWRWIRIDTACVCTLLSRTGRA
notes: It is printed as NTS in several places, which I read as a misprint of NT5; The tracer in the displacement assay was the iodinated form; also called NTS
With B1, the IC50 amounted to 0.0311 nM.
